Laboratory results published in patent US20220033501A1 (SHANGHAI PHARMAEXPLORER, published 2022).

T1: human TIM-3 extracellular domain protein with hFc tag (hTIM-3-hFc) (human, UniProt Q8TDQ0 22-200)
T1 construct: not shown: human IgG Fc fragment (hFc) of the pCpC vector
T1 sequence: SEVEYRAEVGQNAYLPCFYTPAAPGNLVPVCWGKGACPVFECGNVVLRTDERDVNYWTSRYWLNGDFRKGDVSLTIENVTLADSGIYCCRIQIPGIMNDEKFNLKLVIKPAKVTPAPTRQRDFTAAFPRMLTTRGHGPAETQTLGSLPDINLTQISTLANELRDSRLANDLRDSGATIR

T2: human TIM-3, full length, on cells (human, UniProt Q8TDQ0 22-301)
T2 construct: Also used here for native TIM-3 on PBMC in the functional rows; also called CHOK1-hTIM-3; HEK293-h TIM-3
T2 sequence: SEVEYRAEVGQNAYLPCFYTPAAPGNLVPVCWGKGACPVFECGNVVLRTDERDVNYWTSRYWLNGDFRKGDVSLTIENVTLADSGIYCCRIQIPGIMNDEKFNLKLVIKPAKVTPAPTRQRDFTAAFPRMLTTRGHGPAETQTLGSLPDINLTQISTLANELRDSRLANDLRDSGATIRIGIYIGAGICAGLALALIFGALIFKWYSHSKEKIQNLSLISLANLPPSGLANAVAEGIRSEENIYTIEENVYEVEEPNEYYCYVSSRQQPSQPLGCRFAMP


Tests used:
[1] = biological target: T1, human TIM-3 extracellular domain …; assay: FACS, blocking of hTIM-3-hFc binding to phosphatidylserine on apoptotic Jurkat cells, 0.823 nM antibody
Description: (§1) Jurkat cells were treated with 1 μM staurosporine at 37° C. for 2 hours to induce apoptosis. The presence of phosphatidylserine was detected by Annexin V-FITC cell apoptosis detection kit. […] The cells were washed 1-2 times with PBS buffer, and after cell counting, the cells were diluted to 1-2×10⁶ cells per milliliter with binding buffer, and added to a 96-well FACS reaction plate at 100 microliters per well. The antibody sample to be tested and 2 μg/ml hTIM-3-hFc protein were prepared with binding buffer, and mixed equally in volume. The mixture was incubated at room temperature for 30 minutes, then the FACS reaction plate incubated with apoptotic cells was centrifuged to discard the supernatant, and the above mixture was added to the apoptotic cells at 100 microliters per well and incubated at room temperature for 1 hour. The plate was washed twice with the binding buffer by centrifugation, added with 100 microliters of fluorescent (Alexa 488)-labeled secondary antibodies per well, and incubated for half an hour. The plate was washed 2-3 times with the binding buffer by centrifugation, added with 100 microliters of PBS per well to suspend cells, and detected using FACS (FACS Calibur, BD) and the results were analyzed. The results are shown in Table 15 and FIG. 15, wherein the IgG control is human IgG, and the data in the table is the inhibition rate (%).

[2] = biological target: T1, human TIM-3 extracellular domain …; assay: FACS, blocking of hTIM-3-hFc binding to phosphatidylserine on apoptotic Jurkat cells, 7.407 nM antibody
Description: as §1

[3] = biological target: T1, human TIM-3 extracellular domain …; assay: FACS, blocking of hTIM-3-hFc binding to phosphatidylserine on apoptotic Jurkat cells, 0 nM antibody
Description: as §1

[4] = biological target: T1, human TIM-3 extracellular domain …; assay: FACS, blocking of hTIM-3-hFc binding to phosphatidylserine on apoptotic Jurkat cells, 0.274 nM antibody
Description: as §1

[5] = biological target: T1, human TIM-3 extracellular domain …; assay: FACS, blocking of hTIM-3-hFc binding to phosphatidylserine on apoptotic Jurkat cells, 22.222 nM antibody
Description: as §1

[6] = biological target: T2, human TIM-3, full length, on cells; assay: FACS, CHOK1-hTIM-3 cells; antibody 1.6 nM
Description: (§2) The pIRES plasmid containing the full-length nucleotide sequence encoding human TIM-3 as described in Example 1 was transfected into CHOK1 cell line to obtain a CHOK1 stable cell line containing human TIM-3 (herein referred to as CHOK1-hTIM-3 stable cell line). The pIRES plasmid containing the full-length gene of monkey TIM-3 was transfected into CHOK1 cell line to construct a CHOK1 stable cell line containing monkey TIM-3 (herein referred to as CHOK1-cTIM-3 stable cell line). The CHOK1-hTIM-3 stable cell line and CHOK1-cTIM-3 stable cell line were expanded to a confluence of 90% in a T-75 cell culture flask. The medium was aspirated, and the cells were washed with HBSS (Hanks' Balanced Salt Solution) 1-2 times, and then treated with an enzyme-free cell dissociation solution (Versene solution: Life technology) and the cells were collected. The cells were washed with HBSS buffer for 1-2 times. After counted, the cells were diluted with HBSS to 1-2×10⁶ cells per ml, added with 1% goat serum blocking solution, incubated on ice for 20-30 minutes, and then washed with HBSS by centrifugation 2 times. The collected cells were suspended in the FACS buffer (HBSS+1% BSA) to 2×10⁶ cells/ml, added as 100 microliters per well to a 96-well FACS reaction plate, added with 100 microliters per well of the antibody sample to be tested, incubated on ice for 1-2 hours. The plate was washed twice with the FACS buffer by centrifugation, added with 100 microliters of fluorescent (Alexa 488)-labeled secondary antibodies per well, and incubated on ice for 0.5-1.0 hours. The plate was washed 2-3 times with FACS buffer by centrifugation, added with 100 μl fixative solution (4% Paraformaldehyde) per well to suspend the cells. 5-10 minutes later, it was washed 1-2 times with FACS buffer by centrifugation. The cells were suspended with 100 microliters of FACS buffer, FACS (FACSCalibur, BD) was used for detection and the results were analyzed. The results are shown in FIGS. 7 and 8, Tables 7 and 8, wherein the IgG control is rat IgG, and the data in the table are the average fluorescence intensity values of the cell populations measured by MFI.

[7] = biological target: T2, human TIM-3, full length, on cells; assay: FACS, CHOK1-hTIM-3 cells; antibody 0.064 nM
Description: as §2

[8] = biological target: T2, human TIM-3, full length, on cells; assay: FACS, CHOK1-hTIM-3 cells; antibody 0 nM (blank)
Description: as §2

[9] = biological target: T2, human TIM-3, full length, on cells; assay: FACS, CHOK1-hTIM-3 cells; antibody 200 nM
Description: as §2

[10] = biological target: T2, human TIM-3, full length, on cells; assay: FACS, CHOK1-hTIM-3 cells; antibody 0.013 nM
Description: as §2

Binder | Inhibition ratio (%) [1] | Inhibition ratio (%) [2] | Inhibition ratio (%) [3] | Inhibition ratio (%) [4] | Inhibition ratio (%) [5] | Mean fluorescence intensity [6] | Mean fluorescence intensity [7] | Mean fluorescence intensity [8] | Mean fluorescence intensity [9] | Mean fluorescence intensity [10]
7A4F10 fully human TIM-3 antibody (human IgG4, kappa) (antibody, V domains shown) VH: EVQLLESGGGLVQPGGSLRLSCAASGFTFRTHLISWVRQAPGKGLEWVAAITGSGGSTYYADSVKGRFIISRDNSKNTLFLQMNSLRAEDTAVYYCAKDGGSGSYDDFWGQGTLVTVSS VL: ETVLTQSPVTLSLSPGERATLSCRASQSVGSYLAWYQQKPGQAPRLLIYDASNRATGIPARFSGSGSGTDFTLTISSLEPEDFAVYYCQQRSNWPPTFGQGTKVEIK | 5.7% | 62.4% | 0.5% | 0.9% | 62.1% |  |  |  |  | 
7A4F10 (TIM-3 antibody purified from hybridoma, chimeric antibody of Example 2) (antibody, V domains shown, From hybridoma of Harbour H2L2 transgenic mice: human variable regions, rat constant regions) VH: EVQLLESGGGLVQPGGSLRLSCAASGFTFRTHLISWVRQAPGKGLEWVAAITGSGGSTYYADSVKGRFIISRDNSKNTLFLQMNSLRAEDTAVYYCAKDGGSGSYDDFWGQGTLVTVSS VL: ETVLTQSPVTLSLSPGERATLSCRASQSVGSYLAWYQQKPGQAPRLLIYDASNRATGIPARFSGSGSGTDFTLTISSLEPEDFAVYYCQQRSNWPPTFGQGTKVEIK |  |  |  |  |  | 15.4 | 4.3 | 2.9 | 145 | 3.3
18D2H2 (TIM-3 antibody purified from hybridoma, chimeric antibody of Example 2) (antibody, V domains shown, From hybridoma of Harbour H2L2 transgenic mice: human variable regions, rat constant regions) VH: EVQLVESGGDLVQPGGSLRLSCAASGFTFSTYWMTWVRQAPGRGLEWVANIKQDGSAKYYVDSVKGRFTLSRDDAKNSLYLQMNSLRAEDTAVYYCARGSNWFDYWGQGTLVTVSS VL: ETVMTQSPATLSVSPGERATLSCRANQNVYSNLAWYQQKPGQAPRLLIYDASTRATGFPARFSGSGSGTEFTLTISSLQSEDFAVYYCQQYNNWPLTFGGGTKVEIK |  |  |  |  |  | 40.2 | 6.6 | 2.9 | 212 | 4.2
18D2H2 fully human TIM-3 antibody (human IgG4, kappa) (antibody, V domains shown) VH: EVQLVESGGDLVQPGGSLRLSCAASGFTFSTYWMTWVRQAPGRGLEWVANIKQDGSAKYYVDSVKGRFTLSRDDAKNSLYLQMNSLRAEDTAVYYCARGSNWFDYWGQGTLVTVSS VL: ETVMTQSPATLSVSPGERATLSCRANQNVYSNLAWYQQKPGQAPRLLIYDASTRATGFPARFSGSGSGTEFTLTISSLQSEDFAVYYCQQYNNWPLTFGGGTKVEIK | 3.9% | 64.9% | 1.4% | 5.4% | 63.9% |  |  |  |  | 

The next lines start with the values.

Inhibition ratio (%) [1] | Inhibition ratio (%) [2] | Inhibition ratio (%) [3] | Inhibition ratio (%) [4] | Inhibition ratio (%) [5] | Mean fluorescence intensity [6] | Mean fluorescence intensity [7] | Mean fluorescence intensity [8] | Mean fluorescence intensity [9] | Mean fluorescence intensity [10] | Binder
-4.4% | 59.5% | 1.6% | 0.3% | 61.8% |  |  |  |  |  | 215A8F2 fully human TIM-3 antibody (human IgG4, kappa) (antibody, V domains shown) VH: QVQLQQWGAGLLKPSETLSLTCTVYGGSFSGYYWNWIRQPPGKGLEWLGEINHSGSTNYNPSLKRRVTISVDTSKNQFSLKLSSVTAADTAVYYCARVYYYGPFDFWGQGTLVTVSS VL: not shown
 |  |  |  |  | 214 | 18.7 | 3 | 613 | 8.6 | 215A8F2 (TIM-3 antibody purified from hybridoma, chimeric antibody of Example 2) (antibody, V domains shown, From hybridoma of Harbour H2L2 transgenic mice: human variable regions, rat constant regions) VH: QVQLQQWGAGLLKPSETLSLTCTVYGGSFSGYYWNWIRQPPGKGLEWLGEINHSGSTNYNPSLKRRVTISVDTSKNQFSLKLSSVTAADTAVYYCARVYYYGPFDFWGQGTLVTVSS VL: not shown
6.1% | 60.1% | 5.5% | 8% | 58.4% |  |  |  |  |  | 134H3G6 fully human TIM-3 antibody (human IgG4, kappa) (antibody, V domains shown) VH: EVQLVESGGGLVQPGGSLRLSCAASGFTFSNSWMTWVRQAPGKGLEWVANIKQAGTEKYYVDSVKGRFTISRDNAKNSLYLQMNSLRAEDTAVYYCNSGSNYFDYWGQGTLVTVSS VL: EIVMTQSPATLSVSPGERATLSCRARQNFYSNLAWYQQKPGQAPRLLIYGASTRATGIPARFSGSGSGTEFTLTISSLQSEDFAVYYCQQYNNWPLTFGGGTKVEIK
 |  |  |  |  | 390 | 58.1 | 2.9 | 485 | 21.2 | 57F4E5 (TIM-3 antibody purified from hybridoma, chimeric antibody of Example 2) (antibody, V domains shown, From hybridoma of Harbour H2L2 transgenic mice: human variable regions, rat constant regions) VH: EVQLVESGGGLVQPGGSLRLSCAASGFTFSSYWMSWVRQAPGKGLEWVANIKQDGSEKYYVDSVKGRFTISRDSAKNSLYLQMNSLRAEDTAMYFCARDSNFFDYWGQGTLVTVSS VL: ETVMTQSPATLSVSPGERATLSCRASQSVSSNLAWYQRKPGQAPRLLIYFSSTRATGIPARFSGSGSGTEFTLTISSLQSEDFAVYYCQQYNNWPLTFGGGTKVEIK
 |  |  |  |  | 50 | 8.2 | 3 | 261 | 4.7 | 134H3G6 (TIM-3 antibody purified from hybridoma, chimeric antibody of Example 2) (antibody, V domains shown, From hybridoma of Harbour H2L2 transgenic mice: human variable regions, rat constant regions) VH: EVQLVESGGGLVQPGGSLRLSCAASGFTFSNSWMTWVRQAPGKGLEWVANIKQAGTEKYYVDSVKGRFTISRDNAKNSLYLQMNSLRAEDTAVYYCNSGSNYFDYWGQGTLVTVSS VL: EIVMTQSPATLSVSPGERATLSCRARQNFYSNLAWYQQKPGQAPRLLIYGASTRATGIPARFSGSGSGTEFTLTISSLQSEDFAVYYCQQYNNWPLTFGGGTKVEIK
